Five molecules from patent US20210363249A1 (INNATE PHARMA, published 2021) can be followed below.

Test [1] has as its target T1, Human Siglec-9 (human, UniProt Q9Y336 18-463).
T1 construct: Expressed on transfected CHO cells and YTS cells; also called huSiglec-9; CD329
Nature of the test: flow cytometry on fresh purified human NK cells gated CD3-/CD56+, isotype control staining.

The target in another test is Human Siglec-7 (human) (UniProt Q9Y286). The test is described as above.
Test [2] concerns the target T1, Human Siglec-9. Nature of the test: flow cytometry titration on moDC against neuraminidase-treated moDC. How it is done:
(§1) moDC were desialylated for 2 hours with 25 mU neuraminidase (Roche Diagnostics).
(§2) Binding on moDCs and neuraminidase treated moDCs was tested in a titration experiment by flow cytometry. Cells were incubated 1 h in Staining Buffer (SB) with primary antibodies at 10 ug/ml and a series of dilution of 1:10. They were washed two times with SB, then incubated 30 min with a Goat F(ab′)² Anti-Human IgG (Fc) PE (Jackson lmmunoresearch), and washed twice with SB.

Test [3] has as its target T1, Human Siglec-9. Put plainly: flow cytometry titration on neuraminidase-treated (desialylated) moDCs; goat F(ab')2 anti-human IgG (Fc) PE. How it is done:
as §1, §2

T1 sequence (Q9Y336 18-463): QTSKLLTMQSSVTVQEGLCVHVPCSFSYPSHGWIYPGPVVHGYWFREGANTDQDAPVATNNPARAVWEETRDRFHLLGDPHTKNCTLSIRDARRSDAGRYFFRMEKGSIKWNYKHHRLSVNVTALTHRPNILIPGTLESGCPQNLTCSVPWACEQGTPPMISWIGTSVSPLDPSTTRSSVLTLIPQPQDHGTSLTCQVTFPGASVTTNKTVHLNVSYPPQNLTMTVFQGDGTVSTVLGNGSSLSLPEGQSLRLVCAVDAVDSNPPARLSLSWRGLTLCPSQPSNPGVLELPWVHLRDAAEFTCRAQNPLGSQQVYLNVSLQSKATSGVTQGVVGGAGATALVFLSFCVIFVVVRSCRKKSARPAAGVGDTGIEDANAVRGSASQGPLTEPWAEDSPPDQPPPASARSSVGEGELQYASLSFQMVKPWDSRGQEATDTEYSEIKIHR
Chain of Human Siglec-7 (human) (Q9Y286 19-467): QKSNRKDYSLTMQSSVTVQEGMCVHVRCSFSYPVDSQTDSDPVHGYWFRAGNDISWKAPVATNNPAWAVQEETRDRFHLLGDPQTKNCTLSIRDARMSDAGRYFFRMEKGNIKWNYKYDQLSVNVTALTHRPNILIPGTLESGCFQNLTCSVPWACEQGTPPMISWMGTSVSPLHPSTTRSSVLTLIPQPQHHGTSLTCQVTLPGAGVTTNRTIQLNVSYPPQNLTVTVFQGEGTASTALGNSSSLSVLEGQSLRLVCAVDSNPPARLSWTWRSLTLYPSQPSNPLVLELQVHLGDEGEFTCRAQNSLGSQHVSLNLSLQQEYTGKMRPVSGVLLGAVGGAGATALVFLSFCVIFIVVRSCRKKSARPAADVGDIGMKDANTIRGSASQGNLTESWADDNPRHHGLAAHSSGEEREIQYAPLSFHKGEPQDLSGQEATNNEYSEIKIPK

For Isotype control - PE (antibody), in the test with Human Siglec-9 [1], the percent of NK cells in quadrant Q2 (isotype APC positive, isotype PE positive) came to 0.34 and the percent of NK cells in quadrant Q3 (isotype APC negative, isotype PE positive) is 2.54.

For Isotype control - APC (antibody), in the test with Human Siglec-7 (human), the percent of NK cells in quadrant Q1 (isotype APC positive, isotype PE negative) amounted to 0.975 and the percent of NK cells in quadrant Q2 (isotype APC positive, isotype PE positive) was found to be 0.34.

B1: mAbA (antibody, V domains shown)
VH: QVQLQQPGAELVKPGSPVKLSCKASYFTFTSYWMHWVRQRPGQGLEWIGEINPSNGHTNYNEKFESKATLTVDRSSSTAYMQLSSLTSEDSAVFYCANGVESYDFDDALDYWGQGTSVTVSS
VL: DIQMTQTTSSLSASLGDRVTISCRASQDINNYLNWYQQKPDGTIKLLIYYTSRLHSGVPSRFSGSGSGTDYSLTINNLEQEDIATYFCQQGNTLPFTFGGGTKLEIK
notes: Anti-Siglec-9
As for B1, the “fold enhancement of EC50 after neuraminidase treatment of moDC” value (“fold enhancement of EC50” below) with Human Siglec-9 [2] stood at 10 fold. In the test with Human Siglec-9 [3], the “EC50 (read off the curve)” value was ~0.03 µg/mL.

B2: mAbD (antibody, V domains shown)
VH: QIQLVQSGPELKKPGETVKISCKASGYTFTDYSMHWVKQAPGKGLKWMGWIITETGEPTYADDFRGRFAFSLETSANTAYLQINNLKNEDTATYFCARDFDGYWGQGTTLTVSS
VL: DILMTQSPASLSASVGETVTITCRASENIYSYLAWYQQKRGKSPQFLVYNAKTLTEGVPSRFRGSGSGTQFSLKINSLQPEDFGTYYCQHHYGFPWTFGGGTKLEIK
notes: Anti-Siglec-9
In the case of B2, the “fold enhancement of EC50” value in the test with Human Siglec-9 [2] turned out to be 10 fold. In the test with Human Siglec-9 [3], the “EC50 (read off the curve)” value was ~0.09 µg/mL.

B3: mAbC (antibody, V domains shown)
VH: QIQLVQSGPELKKPGETVKISCKASGYTFTNYEMNWVKEAPGKGLKWMGWINTYTGESTYADDFKGRFAFSLETSASTVYLQINNLKDEDVATYFCVRDDYGRSYGFAYWGQGTLVTVSA
VL: NIVLTQSPASLTVSLGQRANISCRASESVDSYGNSFMHWYQQKPGQPPKLLIYLASKLESGVPARFSGSGSRTDFTLTIDPVETDDAATYYCHQNNEDPPWTFGGGTKLEIK
notes: Anti-Siglec-9
B3: the “fold enhancement of EC50” value with Human Siglec-9 [2] is 10 fold. Also, the “EC50 (read off the curve)” value with Human Siglec-9 [3] was ~0.03 µg/mL.
